Measurements reported in the supplement of paper PMC12636428.

Each sequence was assayed on Saccharomyces cerevisiae (assay: transcriptional activation domain activity (GFP:mCherry ratio, weighted mean of sorted bins, harmonized to initial dataset scale) (arbitrary fluorescence ratio units); higher = stronger transcriptional activation). Settings: beta-estradiol 1 µM; induction time 4 h.
In short: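 Each value is an activation activity: the read-weighted mean of bin median fluorescence, averaged across barcodes, then mapped linearly to the initial dataset scale. The tiles, fused to an estradiol-inducible synthetic transcription factor, sat at the yeast URA3 locus in GFP-reporter diploids. Cells spent 4 hours at 30 °C in SC with 1 uM beta-estradiol before sorting into 8 GFP:mCherry bins, and tiles below 50 reads were removed.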

| Sequence | transcriptional activation domain activity |
| --- | --- |
| AMKDIEIVKDEETGAPIVRLRGEAAAAAKKAGVQDITLSISHSDNQAIAVAVA | 58900 |
| MGLSSSCFFLLLLVLSLFYYFFLSFFFIGHVAYFMTCGGLERAFLYLLLLLLL | 49100 |
| GMVPGYYPKMPYNPMGGDPLLDQAFYGADDFFFPPEGCDNNMLYPQTATSWNV | 138000 |
| MILLPSLWLLSLVVIFPVCYFYIQKSFPFPSSLFCIVCPITIYIINILSSHVL | 33900 |
| LSLPPPLPFFPPLFPFFFLFFFYLLISFFFSFLFCGEMDLGWALQVAAATYSH | 36700 |
| MMDCRRRTGFQAFFLSFLSLVLSSFFLLCLFNPYVCVFFLIFHYRLTFSVIWS | 49100 |
| PEKCGDLVVIRGGRLHFRSSAVRLHLLQQMGKTLLLLKDAHLQLTLRTLLYAR | 46500 |
| GCEPKNQRIFYFHVLILQRSLMARLERHEEGLSTKEWRLVLGDHYWISHWKKV | 51400 |
| KMEESKKRGTKRKSALASDSEEEEEVKPKPIAKPAKPAAKAESSVHVRKGVVL | 17700 |
| MYCACGQDGKSPFVMRCVLCFGFVFLFLFLLFFSSLLISLLFIFSHCSMLLPI | 23000 |
| YFVVRGFLFSSAVGCLGLRLGLGLFKRVIYWDQKLLLFLFLFPFFFPPLFSTR | 60900 |
| PFCMVNAKTVTLRMIESIHKLRRVLVRSEDEIIRLISPVSAKVLCTCLPLFEM | 60400 |
| MKACLRCLVFLLGCTSPWCFTRYLALEHFTLFWIDADLWWQVYRFSILVLLSY | 44400 |
| MDKIRKGKVVVVGCGGVGSWAAVMLVRSCVQHFVVYLVCSSIYIIISGVSKIR | 58900 |
| EKKVKAPKSPKKEKKKEEAEAAAPATEEPAKDEEPAAAEAPAAEEAPKEEAAA | 41200 |
| EVDMTPADALDDFDLEMLGDVESPSPGMTHDPVSYGALDVDDFEFEQMFTDAL | 112000 |
| EEEGAVDEDEEEEDEEDPEERRKRELRERMAKMSGGMGMAGMFGGGMPMPGAA | 58900 |
| MTLGLMAFSEYNFADYACLFLFSSFLLFYLIFPIFSFLLLCVYFFFVSFHLYA | 27600 |
| RKDRKDRTRKERRDRHDDGRRHRHRRSSRSRSRDRRDRKHDRSRSRDRRKDGD | 9360 |
| MPSFFLFFLFFFLLSQCFLVLCHVCIGLVSFSSLSFFFFFPYSTFFSPLPFFL | 61700 |
| MLCIRYLIYFLLLGESLVGSFLPPFTIYISLFFSSSIPCSTWVSFPLLHHTYL | 35900 |

| Sequence | transcriptional activation domain activity |
| --- | --- |
| FSLFGSFGCFGSLTLLLSLVMPVVLFVMLQWVMVWIWSCCFIFRLGMLTSFDV | 54500 |
| EAEDGAEKPKRGRKRKEPPAEAEANGDEPAPAAEEEEAPPAKKTKPSSSPLAK | 27800 |
| AVLWNPCICFKSPLVFRFCLSVLLAYLSLPFIPFVFLYYCFLFFVLWFIHSSY | 31700 |
| ATSVWLRVFFIAVSSIAVIPILNFWGLCKLWGFIFFFSCGNVYVGLLFTVVLF | 62300 |
| RKDKSRVEDSDSADSDAGHVNGNKAGEGEEGAAKKKRKRRHKKRVPDGEGASV | 29700 |
| FRSFVLMRLLVPIPAYFVLSCMFSMINLPFKLSFGGMGYGYGAGFMIWWCFTF | 65100 |
| YFRAEAMKTFFSRNYWQLEVRLYVPTKRKGIFHGKDWRINVLLGMWWVVVHIA | 55100 |
| VVEALRLPLKPIQLLSKLFLRRLYEQDQLEEIRGIAKQIKIELYLLVALNVLL | 54000 |
| SLLMLLFIRGWFSYLIAVVSISGVLVLHMLYFLLQWRLKYILWLLLHCSIAIP | 79500 |
| LFASMIPSMRDLIVIVLTLPNHATVIELQHYALEIAEQLTRFWFLRAENPLYR | 62600 |
| LAEVILLPDLCGFCCFSMRFVVLLDLIGTLTLPVTCLYLIYLIYVMASGNGPF | 50300 |
| KKKSSRKRDEEDKERSLRKHSRHHKSRRKRSRERSESPESSRHRHRHKKSSSS | 17600 |
| KQSWSYFYKVLQGLLMDLFFIITIPIYFYYYLPNWNPPLWTLLDFTTLESLNF | 69000 |
| SSWIKWVFLFARYFPLLAGLCGRIIDSIVLYKHPIPIPLNALRIWYICQVLII | 59300 |
| MVFPSKSLFYLVGPCLSFFFVPPTWYDVFHLLFSPMTLDYYPFVLWYSPFLST | 39300 |
| AVRLCRVTIKDITDPLPEGLRLSILLMSMDSLRLGRLYQVLDYMTIRSSLGKV | 44600 |
| LELPDNLDNADFSKLLEFDAKNDEALFNSNELLSHTMDPVNNIDLTHDHSREV | 93000 |
| SKWWLLGDSFEADILTFITLYQFVNAGFVFNYGYIFRKSWYRNYLLICIWALF | 67200 |
| AYMREMCVCLRDLFEALGCNKLTTLRIMLYNDAYCLGQSPTFRIRYLMSQLEP | 49600 |
| VDAKFVIVANYGTACVVMGFLAVAMYCLLITVGDDIYFVGMLFSFTIIGTLMI | 29300 |
| MFCFFEFLFFYKEDLAAYALCSCSQLPASFFLFLFPSPLWLFFFFFIFCLTFM | 38900 |

| Sequence | transcriptional activation domain activity |
| --- | --- |
| MSMFAMDFIIGHMVLFVLSPFTLVPYIDQLHSTMLFWLRPLLRLLRFYVHLYS | 68200 |
| GFLLLLLLLFVFSLVVVHGIVSVSVFYQFFRPYCRFFLFYPYWFIYFLFCLLA | 58500 |
| LLPLFFASIGFAIVSMILIFSSNVVCLLICPHQALSRIVASYLLRHDPKYLCA | 71600 |
| GEASAEKTKKRSRASKGGEDGKKKKSKEARVESNGANGHAGGDAAAAAAAEQQ | 30400 |
| EDRSEKRKRKRDDEVEPKKSKSKWKPEEKSDEDPKSTPKSNGGKRRRPERPEK | 27300 |
| ARDMLEDTFLIPKNLYAVHGPGISVKALEIADALVDVVNQYDQNAESEAWNFL | 112000 |
| SATPATSEAAKPATSSLFGNGSSTTTAGATAAKPSLFGAAQSTPTTQPATTGA | 38800 |
| MLLTLQSYFFFLLMFLVNSVSLLSFFSIFVFIIFLRYGCRMLWWHLHCIYPIF | 38000 |
| MKDSHTARSDAVVFAIAVGRPFFFAAVLLRLLATETLGSSIALGVIGLVFIYC | 42400 |
| HSSSPEDQERKRSKSRLRDAAAAGAAALGVNEYENRKDRKKRERRRERSERRY | 24200 |
| KADDGGGDEAEKPKKATSKKPKKENDDAMDVDEEAQERPKPKPRPKPKPKAKE | 22000 |
| KKASSSAVGEGKKKSASKPRTSSAGGASVDGQPKKPKQSKKKAASGSKGGAGS | 28500 |
| MAFKLSTAEKVYLALRLTLLTPFHILTSLIRSFILSLSRGLPPRLFWVCAVLR | 49500 |
| NTVWLILNDITIGIAFGTFLCENHLILAAYVNYTIEKLLIKEIQWILGWLDSW | 84200 |
| RNILLFTMVADGESSLVIWSIFYHFFLDDNSLGLLLAQCRKLVQISNDMQTWM | 58900 |
| HFLLLPSLFLFSSFLPFLTSLPPHSPFFFLSFLFFSPLFSLFFLFINSTHFLP | 41700 |
| QLEGDADLFLVPNFYVLRRISHLATTTLLRQLEAFSIRTPVFGVLLWKSLVAI | 49100 |
| MSRPSGCRSATSTGRATCSGCRRSSSPARPPCASRRARCSCGCVCASPTSTRR | 12100 |
| MLFLPSYSFSVFLFLFLLFALTVQVCLFLFTTWLVSCFDMYVFVWVGVCLCAR | 47700 |
| MFLLVLYPILHLLFLPCKYQYFQIFIRLLSQLPLLFFFCNTFWFFSTSVFFLN | 69600 |
| LLQSSKEDIPFINANLAFPDDNSTNIQLQPFSESQSQNKFDYDMFFRDSSKEG | 80700 |

| Sequence | transcriptional activation domain activity |
| --- | --- |
| LQAARSADIAISQFRYLKKLLLVHGAWSYRRLATLILYSFYKNVVLYMTQFWF | 65100 |
| LVVCCLASQVFIDSILLLPVKIVPPFYRLLSGVVNLVICRLTLFFLGFWWIPV | 59500 |
| MAIFRIYVLIAVVRLGDILTDIYVVGGVLLLLRYQVFLMFFHFFFFLFFYTGL | 43700 |
| YIKVLVAVLFVLDTLHVYYLSATFWVVCIRGRLDISGLTVLPWQTPASILMTV | 42300 |
| MCGRLISLLVVLLLVKFRNSSLCGILDVFLFFFRRTPFVRMGFYFMIFLLLTI | 65500 |
| VLICAHGQQQMGSGVFLGQDLLSRARMESIFCRSTVPVIVITTAYCSGLWAVP | 55900 |
| SKDDRSISSEDKASSDKLKKSSDRADRKRKDDDDSKRSKADRKSKRDEERSSD | 29600 |
| MRTLHGLVYFFPFILYHRLVFLWLRVLALSRYVFLFSVCFPWSVLVTFVIFLY | 80100 |
| FHYGGRADVTSVFTVEARTSLTVDDFRKRILLAWANLRLHHVLLMSTVLRDSA | 65000 |
| MITTLFSFLLVFFPFFLFRFFLLLLLLNLFLLLLSHFLSLYHQPISPIPPRHH | 74200 |
| IRNHSLPTNLQVKDKIEDLNEIKFFNDFEKLEFFNKYAKVNTNNDVNENNDLW | 46800 |
| EKPKPEESPKGRGKSSGEPAPIPPSNGAADSKPSSAGAGNGSGSGSGDGGRKG | 39800 |
| MFLFLFLFVFLFVFLFLFLFLFLFLFLFLFMFPFLFPFLFPFPFPFPFPVLVL | 52700 |
| MVLCNSKSLFFPLFLHYLYCVIFLLLWILFHIAFIFFTNFYYYLPSHTLCAFI | 61700 |
| RFMVVIVSLFPRLNYFMDAVGHVLSVYYFNHLACQWITTAITSLAIVLFALRT | 53900 |
| FPHNETLPALGQDGINEDNLNETIDNMLIFDFLDDGSENNQVKYSRIIPPDIR | 89000 |
| APQGEEKAPAPRRSKRAKTAAPSDQETEETATKVVAGKAGAGKGKAVAAKAAA | 51800 |
| ERKDREKMKAKLKEAKREKQRKERAREREKERERKRKEKEKEKKRKEKERERK | 38000 |
| DVGNSVWHVDCCSPYVNGGSGWGFFNAILGWTNSATYGSVISYNLYWLFVIAV | 51100 |
| PENWTMDSWPLYWPQALIDTIPSLQLSIPPMDLTTLDNPLAPFAFFMFLFSWQ | 53400 |
